Values after ≈ are worked out from the molar mass of the structure shown.
Assays:
hsst1 = molecular target: T1, hsst1 (Homo sapiens, UniProt P30872); test: Somatostatin receptor radioligand binding assay, hsst1
T1 construct: expressed in transfected cells
Procedure, shortened: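 Membranes from CHO-K1 cells stably transfected with each human SSTR subtype, incubated 90 min at 25 °C with 0.05 nM [125I-Tyr11]SS-14 in 50 mM HEPES pH 7.4 with BSA, MgCl2 and protease inhibitors; filtration read-out. Nonspecific binding with 1000 nM SS-14; Ki values reported.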

hsst5 = molecular target: T2, hsst5 (Homo sapiens, UniProt P35346); test: Somatostatin receptor radioligand binding assay, hsst5; details: hsst5 Ki, CHO-K1 membranes, [125I-Tyr11]SS-14
T2 construct: expressed in transfected cells
T2 sequence (P35346 whole entry): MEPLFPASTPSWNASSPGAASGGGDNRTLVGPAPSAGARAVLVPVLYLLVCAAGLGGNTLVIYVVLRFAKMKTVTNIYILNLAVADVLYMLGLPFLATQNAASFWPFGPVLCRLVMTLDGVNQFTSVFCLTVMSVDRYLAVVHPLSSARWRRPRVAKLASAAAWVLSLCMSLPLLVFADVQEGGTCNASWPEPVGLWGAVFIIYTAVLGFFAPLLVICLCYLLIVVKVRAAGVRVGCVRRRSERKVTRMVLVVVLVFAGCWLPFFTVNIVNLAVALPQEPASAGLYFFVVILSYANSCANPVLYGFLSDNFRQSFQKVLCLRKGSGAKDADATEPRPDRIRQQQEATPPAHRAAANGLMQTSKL
Procedure, shortened: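 Membranes from CHO-K1 cells stably expressing hsst5, incubated 90 min at 25 °C with 0.05 nM [125I-Tyr11]SS-14 in 50 mM HEPES pH 7.4 with BSA, MgCl2 and protease inhibitors. Bound ligand collected by filtration. Non-specific binding defined with 1000 nM SS-14.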

sst2-D2 = molecular target: T3, sst2-D2 (Homo sapiens, UniProt P14416+P30874); test: cAMP Responsive Element-Luciferase reporter gene assay, sst2-D2 co-transfected HEK-293 cells; type: cell-based; details: read-out: IC50 value of cAMP inhibition
T3 construct: expressed in transfected cells; host or cells: HEK-293, transient co-transfection
T3 sequence (P30874 whole entry): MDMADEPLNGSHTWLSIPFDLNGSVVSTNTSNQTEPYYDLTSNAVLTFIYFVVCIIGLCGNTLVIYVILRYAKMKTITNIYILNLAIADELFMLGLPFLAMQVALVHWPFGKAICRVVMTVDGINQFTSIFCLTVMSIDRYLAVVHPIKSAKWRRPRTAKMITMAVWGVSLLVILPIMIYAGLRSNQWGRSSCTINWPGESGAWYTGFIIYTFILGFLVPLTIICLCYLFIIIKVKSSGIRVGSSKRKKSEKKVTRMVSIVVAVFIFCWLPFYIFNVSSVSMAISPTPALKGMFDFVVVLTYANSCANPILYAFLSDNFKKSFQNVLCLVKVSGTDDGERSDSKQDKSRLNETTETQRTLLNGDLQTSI
T3 sequence (P14416 whole entry): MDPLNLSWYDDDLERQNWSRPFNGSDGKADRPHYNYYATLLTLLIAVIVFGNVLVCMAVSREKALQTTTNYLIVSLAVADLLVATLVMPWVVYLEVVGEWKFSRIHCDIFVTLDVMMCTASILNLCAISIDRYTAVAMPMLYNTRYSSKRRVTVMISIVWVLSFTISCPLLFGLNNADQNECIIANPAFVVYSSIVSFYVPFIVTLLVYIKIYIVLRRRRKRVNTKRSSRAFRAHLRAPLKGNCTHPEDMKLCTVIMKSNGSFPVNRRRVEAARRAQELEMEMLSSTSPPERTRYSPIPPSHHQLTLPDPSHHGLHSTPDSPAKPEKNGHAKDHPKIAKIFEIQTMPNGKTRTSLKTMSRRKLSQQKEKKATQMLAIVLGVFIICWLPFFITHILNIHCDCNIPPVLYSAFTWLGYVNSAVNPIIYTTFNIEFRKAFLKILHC
Description: A cAMP Responsive Element-Luciferase reporter gene assay in HEK-293 cells was used in this assay, wherein said HEK-293 cells were transiently transfected with D2 and/or sst2 cDNA. […] In sst2-monotransfected cells, the IC50 value of cAMP inhibition of Example 1 was 0.04 nM.

[1] = Solubility of Example 1 at various concentrations of DMA and PEG400; type: physicochemical
Description: A compound that may advantageously be used to practice the invention can be tested to determine its solubility at different DMA and PEG400 concentrations using the following procedure.
To about 1 mg of Example 1 were added increasing volumes of the above solvents or buffers. When a soluble volume was reached, the concentration was calculated by weight/volume. When Example 1 was not soluble, the solution was centrifuged and the supernatant was analyzed by HPLC to determine the concentrations. The determined concentration is treated as the solubility of Example 1 in that solvent or buffer.
The solution pHs were checked. They were about pH 7. No further adjustment was done.

T1 sequence (P30872 whole entry): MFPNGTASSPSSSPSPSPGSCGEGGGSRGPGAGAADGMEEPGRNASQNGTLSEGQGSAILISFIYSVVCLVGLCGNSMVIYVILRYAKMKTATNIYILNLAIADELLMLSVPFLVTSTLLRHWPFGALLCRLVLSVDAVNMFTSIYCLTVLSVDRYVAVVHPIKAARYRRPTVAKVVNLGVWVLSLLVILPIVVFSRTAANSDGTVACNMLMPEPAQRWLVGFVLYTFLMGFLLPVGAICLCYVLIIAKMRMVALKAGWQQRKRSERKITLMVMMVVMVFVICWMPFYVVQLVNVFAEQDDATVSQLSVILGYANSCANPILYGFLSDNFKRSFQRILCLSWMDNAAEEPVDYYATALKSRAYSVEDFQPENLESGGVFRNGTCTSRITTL

Which results are given for `CCCN1C[C@H](CSCC(=O)NCCCC[C@@H](NC(=O)CSC[C@@H]2C[C@@H]3c4cccc5[nH]cc(c45)C[C@H]3N(CCC)C2)C(=O)N[C@H]2CSSC[C@@H](C(=O)N[C@H](C(N)=O)[C@@H](C)O)NC(=O)[C@H](CC)NC(=O)[C@H](CCCCN)NC(=O)[C@@H](Cc3c[nH]c4ccccc34)NC(=O)[C@H](Cc3ccc(O)cc3)NC2=O)C[C@@H]2c3cccc4[nH]cc(c34)C[C@H]21` [Example 1, Dop2-DLys(Dop2)-cyclo[Cys-Tyr-DTrp-Lys-Abu-Cys]-Thr-NH2]?
Ki (hsst1): 843 nM; Ki (hsst5): 41.5 nM; IC50 (sst2-D2): 0.02 nM; solubility ([1]; 5% DMA in PBS, PBS pH 7, 5% DMA, by HPLC): 130 µg/mL (≈ 76.7 µM); solubility ([1]; 5% DMA in water, Water pH 7, 5% DMA): > 100000 µg/mL; solubility ([1]; 5% PEG400 in PBS, PBS pH 7, 5% PEG400, by HPLC): 50 µg/mL (≈ 29.5 µM); solubility ([1]; 5% PEG400 in water, Water pH 7, 5% PEG400): > 50000 µg/mL; solubility ([1]; 10% DMA in PBS, PBS pH 7, 10% DMA, by HPLC): 480 µg/mL (≈ 283 µM); solubility ([1]; 10% DMA in water, Water pH 7, 10% DMA): > 100000 µg/mL; solubility ([1]; 10% PEG400 in PBS, PBS pH 7, 10% PEG400, by HPLC): 330 µg/mL (≈ 195 µM); solubility ([1]; 10% PEG400 in water, Water pH 7, 10% PEG400): > 50000 µg/mL; solubility ([1]; 20% DMA in PBS, PBS pH 7, 20% DMA, by HPLC): 780 µg/mL (≈ 460 µM); solubility ([1]; 20% DMA in water, Water pH 7, 20% DMA): > 100000 µg/mL; solubility ([1]; 20% PEG400 in PBS, PBS pH 7, 20% PEG400, by HPLC): 750 µg/mL (≈ 443 µM); solubility ([1]; 20% PEG400 in water, Water pH 7, 20% PEG400): > 50000 µg/mL; solubility ([1]; 30% DMA in PBS, PBS pH 7, 30% DMA, by HPLC): 4200 µg/mL (≈ 2480 µM); solubility ([1]; 30% DMA in water, Water pH 7, 30% DMA): > 100000 µg/mL; solubility ([1]; 30% PEG400 in PBS, PBS pH 7, 30% PEG400, by HPLC): 2980 µg/mL (≈ 1760 µM); solubility ([1]; 30% PEG400 in water, Water pH 7, 30% PEG400): > 50000 µg/mL; solubility ([1]; 40% DMA in PBS, PBS pH 7, 40% DMA): > 50000 µg/mL; solubility ([1]; 40% DMA in water, Water pH 7, 40% DMA): > 100000 µg/mL; solubility ([1]; 40% PEG400 in PBS, PBS pH 7, 40% PEG400, by HPLC): 3500 µg/mL (≈ 2070 µM); solubility ([1]; 40% PEG400 in water, Water pH 7, 40% PEG400): > 50000 µg/mL; solubility ([1]; PBS (0% DMA), PBS pH 7, 0% DMA, by HPLC): 40 µg/mL (≈ 23.6 µM); solubility ([1]; water (0% DMA), Water pH 7, 0% DMA, by HPLC): 860 µg/mL (≈ 508 µM); Solubility in water based versus PBS based solvents ([1]; water vs PBS): much more soluble in water based solvents than in PBS based solvents

Reference: patent US20110065632A1, “PHARMACEUTICAL COMPOSITIONS OF SOMATOSTATIN-DOPAMINE CONJUGATES” (priority 2008, published 2011)
